Data from US20150299277A1, “AGENT FOR TREATING OR PREVENTING SYSTEMIC INFLAMMATORY RESPONSE SYNDROME” (THE UNIVERSITY OF TOKYO, priority 2012, published 2015).
“Also recorded” adds a separate entry of the source.

Columns and labels:
each histone variant = test: Aggregation of each histone variant and PTX3 fragment, absorbance at 310 nm; format: binding; conditions: histone variant 50 μg/mL, PTX3 fragment 30 μg/mL
Description: Each histone variant (50 μg/mL) and each PTX3 fragment (30 μg/mL) were mixed, and the absorbance at the wavelength of 310 nm was measured. Before mixing, samples were dialyzed against 4 mM CaCl2-containing TBS.

Calf Thymus Histones = test: Aggregation with histone, absorbance at 310 nm; format: binding; conditions: mixture with Calf Thymus Histones
Description: The lower left figure and the lower right figure show the measurement results of absorbance at 310 nm of a mixture of a wild-type or oligomer formation capacity-deficient mutant of PTX3 N-terminal domain having each concentration and 0.1 mg/mL Calf Thymus Histones at 1:1 vol.
The aggregation activity of PTX3 and other pentraxins to histone was evaluated. Calf Thymus Histones (50 μg/mL) were mixed with a PTX3 fragment or the other pentraxin at each concentration, and the absorbance at the wavelength of 310 nm was measured. Before mixing, samples were dialyzed against 4 mM CaCl2-containing TBS.

each histone [1] = test: BIAcore / surface plasmon resonance (SPR) measurement; format: binding, human; conditions: immobilized recombinant histone
Description: For the measurement, BIAcore 3000 or T200 (GE Healthcare) was used. Recombinant human histone was immobilized on CM5 sensor chip by an amine coupling kit (GE Healthcare). The reaction with recombinant PTX3 was performed using a buffer (150 mM NaCl, 20 mM HEPES, 0.005% surfactant P20 (pH 7.4)) at a flow rate of 20 μl/min. Measurement was performed using the buffer containing […]. The sensor chip was regenerated in IM sodium acetate (10 μL, pH 7.2) and 10 mM NaOH (10 μL).
The binding of immobilized each recombinant histone, and Myc- and His-tagged human PTX3 fragment was measured by surface plasmon resonance (SPR). The highest concentration of each PTX3 was as follows. full-length PTX3: 1 nM, N-terminal domain of PTX3: 5 nM, C-terminal domain of PTX3: 50 nM. The assay buffer contained 4 mM CaCl2 (Ca^2+) or 4 mM EDTA/EGTA. The affinity measured by SPR was calculated from three experiments.

histone H3 = target: T1, histone H3 (Homo sapiens, UniProt P68431); test: ELISA binding assay; conditions: immobilized recombinant histone, absorbance at 450 nm
T1 construct: purchased NEB
Description: (§1) Recombinant human histone (NEB) was adjusted to a concentration of 1 μg/mL in TBS, added to a 96 well ELISA plate, and immobilized at 4° C. overnight. The solution was discarded, a blocking buffer (TBS, 0.1% Triton-X100, 1% BSA) was added, and the plate was incubated at room temperature for 2 hr. The plate was washed four times with a wash buffer (TBS, 0.1% Triton-X100), recombinant PTX3 diluted to various concentrations with the blocking buffer was added to each well, and reacted at room temperature for 1 hr. After washing four times with the wash buffer, HRP-labeled antibody diluted with the blocking buffer was added, and reacted at room temperature for 1 hr. After washing four times with the wash buffer, TMB solution was added to carry out a color development reaction for 30 min, and the absorbance at 450 nm was measured. Assay was performed using all the buffers containing 4 mM CaCl2 or 4 mM EDTA.
(§2) The binding level between immobilized each recombinant histone and tag-free recombinant human PTX3 (rhPTX3) was measured by binding assay (ELISA). For the detection, HRP-labeled anti-PTX3 monoclonal antibody (PPZ1228) was used. ELISA was performed with duplicate wells for each point, and means and standard deviations were calculated from three independent experiments.
as §2, with “a tagged” for “tag-free recombinant”, “fragment” for “(rhPTX3)”, “For” for “For the”, “anti-His (6×His)” for “anti-PTX3 monoclonal”, “antibody” for “antibody (PPZ1228)”

histone H1 = target: T2, histone H1 (Homo sapiens, UniProt P07305); test: ELISA binding assay; conditions: immobilized recombinant histone, absorbance at 450 nm
T2 construct: purchased NEB
T2 sequence (P07305 whole entry): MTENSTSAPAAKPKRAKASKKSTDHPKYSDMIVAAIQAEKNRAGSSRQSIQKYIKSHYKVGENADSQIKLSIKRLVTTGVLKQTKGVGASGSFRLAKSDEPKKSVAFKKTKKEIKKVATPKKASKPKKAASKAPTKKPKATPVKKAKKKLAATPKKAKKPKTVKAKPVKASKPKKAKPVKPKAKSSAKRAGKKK
Description: as §1, §2
as §2, with “a tagged” for “tag-free recombinant”, “fragment” for “(rhPTX3)”, “For” for “For the”, “anti-His (6×His)” for “anti-PTX3 monoclonal”, “antibody” for “antibody (PPZ1228)”

[2] = system: Calf Thymus Histones on HUVEC; test: Cytotoxic assay: suppression of histone cytotoxicity on HUVEC; format: cell-based, human; conditions: 100 μg/mL Calf Thymus Histones, 40 μg/mL protein, 1 hr, PI staining, FACS
Description: After culturing for 1 hr in a medium concurrently containing 100 μg/mL Calf Thymus Histones and APC (200 nM), PTX3 (40 μg/mL), CRP (40 μg/mL) or SAP (40 μg/mL), the level of toxic activity was measured by FACS.
Normal human umbilical vein endothelial cells (HUVECs) were cultured in EGM2 medium (Clonetics). The cells after culture were washed with PBS, added with Opti-MEM medium containing an product of incubation of activated protein C (APC), PTX3, C reactive protein (CRP) or Serum amyloid P component (SAP) with histone for 1 hr, and the cells were further cultured for 1 hr. Propidium iodide (PI) was added to the medium after culture at a final concentration of 10 μg/mL, and the cells were stained for 10 min. The cells were washed with PBS, detached and analyzed by flow cytometry.
The histone cytotoxicity on HUVEC was evaluated by propidium iodide (PI) staining.
Lastly, capacity of suppressing the cytotoxic activity of histone was confirmed. Since this experiment requires a certain amount of protein and an endotoxin-elimination as treatment, a protein was expressed and purified at a 500 mL culture scale, and subjected to an endotoxin-elimination treatment (FIG. 18). In the case of PTX3 N-terminal domain, about 10 mg was obtained at a 500 mL culture scale, and a loss by the endotoxin-elimination treatment was scarcely observed. […] A capacity of fragment proteins obtained at a 500 mL scale on HUVEC to suppress histone cytotoxicity was studied. […] In consideration of the experiments relating to the binding and aggregation, all fragments were considered to possibly have a certain level of suppressive capacity.

each histone [3] = test: ELISA binding assay; parameters: species or system human; conditions: buffers containing 4 mM CaCl2 or 4 mM EDTA
Description: as §1, with “Assay was performed using all the buffers containing 4 mM CaCl2 or 4 mM EDTA.” left out
The binding level between immobilized each recombinant histone and tag-free recombinant human PTX3 (rhPTX3) was measured by binding assay (ELISA). […] ELISA was performed with duplicate wells for each point, and means and standard deviations were calculated from three independent experiments.
The binding level between immobilized each recombinant histone and a tagged human PTX3 fragment was measured by binding assay (ELISA). […] ELISA was performed with duplicate wells for each point, and means and standard deviations were calculated from three independent experiments.

fragment H3-8 on HUVEC = test: Suppression of cytotoxic activity of histone fragment on HUVEC; format: cell-based, human; conditions: fragment 250 μg/mL; full-length PTX3 at 80 μg/mL; HUVEC 1 hr
Description: (§3) Then, a suppressive effect of PTX3 on the cytotoxic activity of fragments […], H3-8, H3-11 and H4-9 was evaluated.
(§4) In the same manner as in FIGS. 7B-D, a suppressive effect of the N-terminal domain of PTX3 on the cytotoxic activity of histone H3 and H4 fragments was evaluated.

fragment H3-11 on HUVEC = test: as above; format: cell-based, human; conditions: fragment 250 μg/mL; full-length PTX3 at 80 μg/mL; HUVEC 1 hr
Description: as §3, §4

fragment H4-9 on HUVEC = test: as above; format: cell-based, human; conditions: fragment 250 μg/mL; full-length PTX3 at 80 μg/mL; HUVEC 1 hr
Description: as §3, §4

fragment H3-6 on HUVEC = test: as above; format: cell-based, human; conditions: fragment 250 μg/mL; full-length PTX3 at 80 μg/mL; HUVEC 1 hr
Description: as §3, §4

| Substance | aggregation with each histone variant, absorbance at 310 nm (each histone variant) | aggregation with Calf Thymus Histones, absorbance at 310 nm (Calf Thymus Histones) | aggregation with Calf Thymus Histones, absorbance at 310 nm (Calf Thymus Histones; listed as N-terminal domain) | affinity for each histone by SPR (each histone [1]) | binding to histone H3 (binding assay) (histone H3) | binding to histone H3 (binding assay) (histone H3; listed as N-terminal domain) | binding to histone H1 (binding assay) (histone H1) | binding to histone H1 (binding assay) (histone H1; listed as N-terminal domain) | suppression of toxic activity of Calf Thymus Histones on HUVEC [2] | influence of calcium ion on binding to each histone (each histone [3]) | suppressive effect on cytotoxic activity of fragment H3-8 (fragment H3-8 on HUVEC) | suppressive effect on cytotoxic activity of fragment H3-11 (fragment H3-11 on HUVEC) | suppressive effect on cytotoxic activity of fragment H4-9 (fragment H4-9 on HUVEC) | suppressive effect on cytotoxic activity of fragment H3-6 (fragment H3-6 on HUVEC) | affinity for each histone by SPR (each histone [1]; listed as PTX3) | suppression of toxic activity of Calf Thymus Histones on HUVEC ([2]; listed as PTX3) |
| --- | --- | --- | --- | --- | --- | --- | --- | --- | --- | --- | --- | --- | --- | --- | --- | --- |
| N-terminal domain of PTX3: N-terminal domain human PTX3 (18-178 amino acids, SEQ ID NO: 3), tagged, expressed in CHO cells or Escherichia coli | aggregated | showed an aggregation activity with histone | an aggregation reaction | full-length PTX3>N-terminal domain>C-terminal domain | equivalent to that of the full-length PTX3 | strong bindability | equivalent to that of the full-length PTX3 | strong bindability | suppress toxic activity of histone on HUVEC; also recorded: suppressed | stronger binding was found in the presence of calcium ion | neutralized | neutralized | neutralized | neutralized |  |  |
| full-length PTX3: full-length human pentraxin 3 (1-381 amino acids, SEQ ID NO: 2), used tag-free or Myc- and His-tagged | aggregated | showed an aggregation activity with histone |  | full-length PTX3>N-terminal domain>C-terminal domain | strong binding affinity |  | strong binding affinity |  | suppress toxic activity of histone on HUVEC | stronger binding was found in the presence of calcium ion | neutralized | neutralized | neutralized | neutralized | extremely high | suppresses cytotoxic activity of extracellular histone on HUVEC to the same level as APC |
